From paper PMC5477518

Target: LRP1, endogenous on primary cortical neurons (mouse (endogenous in primary cortical neurons)) (UniProt Q91ZX7)
Chain of UniProt Q91ZX7 (Q91ZX7 20-4545): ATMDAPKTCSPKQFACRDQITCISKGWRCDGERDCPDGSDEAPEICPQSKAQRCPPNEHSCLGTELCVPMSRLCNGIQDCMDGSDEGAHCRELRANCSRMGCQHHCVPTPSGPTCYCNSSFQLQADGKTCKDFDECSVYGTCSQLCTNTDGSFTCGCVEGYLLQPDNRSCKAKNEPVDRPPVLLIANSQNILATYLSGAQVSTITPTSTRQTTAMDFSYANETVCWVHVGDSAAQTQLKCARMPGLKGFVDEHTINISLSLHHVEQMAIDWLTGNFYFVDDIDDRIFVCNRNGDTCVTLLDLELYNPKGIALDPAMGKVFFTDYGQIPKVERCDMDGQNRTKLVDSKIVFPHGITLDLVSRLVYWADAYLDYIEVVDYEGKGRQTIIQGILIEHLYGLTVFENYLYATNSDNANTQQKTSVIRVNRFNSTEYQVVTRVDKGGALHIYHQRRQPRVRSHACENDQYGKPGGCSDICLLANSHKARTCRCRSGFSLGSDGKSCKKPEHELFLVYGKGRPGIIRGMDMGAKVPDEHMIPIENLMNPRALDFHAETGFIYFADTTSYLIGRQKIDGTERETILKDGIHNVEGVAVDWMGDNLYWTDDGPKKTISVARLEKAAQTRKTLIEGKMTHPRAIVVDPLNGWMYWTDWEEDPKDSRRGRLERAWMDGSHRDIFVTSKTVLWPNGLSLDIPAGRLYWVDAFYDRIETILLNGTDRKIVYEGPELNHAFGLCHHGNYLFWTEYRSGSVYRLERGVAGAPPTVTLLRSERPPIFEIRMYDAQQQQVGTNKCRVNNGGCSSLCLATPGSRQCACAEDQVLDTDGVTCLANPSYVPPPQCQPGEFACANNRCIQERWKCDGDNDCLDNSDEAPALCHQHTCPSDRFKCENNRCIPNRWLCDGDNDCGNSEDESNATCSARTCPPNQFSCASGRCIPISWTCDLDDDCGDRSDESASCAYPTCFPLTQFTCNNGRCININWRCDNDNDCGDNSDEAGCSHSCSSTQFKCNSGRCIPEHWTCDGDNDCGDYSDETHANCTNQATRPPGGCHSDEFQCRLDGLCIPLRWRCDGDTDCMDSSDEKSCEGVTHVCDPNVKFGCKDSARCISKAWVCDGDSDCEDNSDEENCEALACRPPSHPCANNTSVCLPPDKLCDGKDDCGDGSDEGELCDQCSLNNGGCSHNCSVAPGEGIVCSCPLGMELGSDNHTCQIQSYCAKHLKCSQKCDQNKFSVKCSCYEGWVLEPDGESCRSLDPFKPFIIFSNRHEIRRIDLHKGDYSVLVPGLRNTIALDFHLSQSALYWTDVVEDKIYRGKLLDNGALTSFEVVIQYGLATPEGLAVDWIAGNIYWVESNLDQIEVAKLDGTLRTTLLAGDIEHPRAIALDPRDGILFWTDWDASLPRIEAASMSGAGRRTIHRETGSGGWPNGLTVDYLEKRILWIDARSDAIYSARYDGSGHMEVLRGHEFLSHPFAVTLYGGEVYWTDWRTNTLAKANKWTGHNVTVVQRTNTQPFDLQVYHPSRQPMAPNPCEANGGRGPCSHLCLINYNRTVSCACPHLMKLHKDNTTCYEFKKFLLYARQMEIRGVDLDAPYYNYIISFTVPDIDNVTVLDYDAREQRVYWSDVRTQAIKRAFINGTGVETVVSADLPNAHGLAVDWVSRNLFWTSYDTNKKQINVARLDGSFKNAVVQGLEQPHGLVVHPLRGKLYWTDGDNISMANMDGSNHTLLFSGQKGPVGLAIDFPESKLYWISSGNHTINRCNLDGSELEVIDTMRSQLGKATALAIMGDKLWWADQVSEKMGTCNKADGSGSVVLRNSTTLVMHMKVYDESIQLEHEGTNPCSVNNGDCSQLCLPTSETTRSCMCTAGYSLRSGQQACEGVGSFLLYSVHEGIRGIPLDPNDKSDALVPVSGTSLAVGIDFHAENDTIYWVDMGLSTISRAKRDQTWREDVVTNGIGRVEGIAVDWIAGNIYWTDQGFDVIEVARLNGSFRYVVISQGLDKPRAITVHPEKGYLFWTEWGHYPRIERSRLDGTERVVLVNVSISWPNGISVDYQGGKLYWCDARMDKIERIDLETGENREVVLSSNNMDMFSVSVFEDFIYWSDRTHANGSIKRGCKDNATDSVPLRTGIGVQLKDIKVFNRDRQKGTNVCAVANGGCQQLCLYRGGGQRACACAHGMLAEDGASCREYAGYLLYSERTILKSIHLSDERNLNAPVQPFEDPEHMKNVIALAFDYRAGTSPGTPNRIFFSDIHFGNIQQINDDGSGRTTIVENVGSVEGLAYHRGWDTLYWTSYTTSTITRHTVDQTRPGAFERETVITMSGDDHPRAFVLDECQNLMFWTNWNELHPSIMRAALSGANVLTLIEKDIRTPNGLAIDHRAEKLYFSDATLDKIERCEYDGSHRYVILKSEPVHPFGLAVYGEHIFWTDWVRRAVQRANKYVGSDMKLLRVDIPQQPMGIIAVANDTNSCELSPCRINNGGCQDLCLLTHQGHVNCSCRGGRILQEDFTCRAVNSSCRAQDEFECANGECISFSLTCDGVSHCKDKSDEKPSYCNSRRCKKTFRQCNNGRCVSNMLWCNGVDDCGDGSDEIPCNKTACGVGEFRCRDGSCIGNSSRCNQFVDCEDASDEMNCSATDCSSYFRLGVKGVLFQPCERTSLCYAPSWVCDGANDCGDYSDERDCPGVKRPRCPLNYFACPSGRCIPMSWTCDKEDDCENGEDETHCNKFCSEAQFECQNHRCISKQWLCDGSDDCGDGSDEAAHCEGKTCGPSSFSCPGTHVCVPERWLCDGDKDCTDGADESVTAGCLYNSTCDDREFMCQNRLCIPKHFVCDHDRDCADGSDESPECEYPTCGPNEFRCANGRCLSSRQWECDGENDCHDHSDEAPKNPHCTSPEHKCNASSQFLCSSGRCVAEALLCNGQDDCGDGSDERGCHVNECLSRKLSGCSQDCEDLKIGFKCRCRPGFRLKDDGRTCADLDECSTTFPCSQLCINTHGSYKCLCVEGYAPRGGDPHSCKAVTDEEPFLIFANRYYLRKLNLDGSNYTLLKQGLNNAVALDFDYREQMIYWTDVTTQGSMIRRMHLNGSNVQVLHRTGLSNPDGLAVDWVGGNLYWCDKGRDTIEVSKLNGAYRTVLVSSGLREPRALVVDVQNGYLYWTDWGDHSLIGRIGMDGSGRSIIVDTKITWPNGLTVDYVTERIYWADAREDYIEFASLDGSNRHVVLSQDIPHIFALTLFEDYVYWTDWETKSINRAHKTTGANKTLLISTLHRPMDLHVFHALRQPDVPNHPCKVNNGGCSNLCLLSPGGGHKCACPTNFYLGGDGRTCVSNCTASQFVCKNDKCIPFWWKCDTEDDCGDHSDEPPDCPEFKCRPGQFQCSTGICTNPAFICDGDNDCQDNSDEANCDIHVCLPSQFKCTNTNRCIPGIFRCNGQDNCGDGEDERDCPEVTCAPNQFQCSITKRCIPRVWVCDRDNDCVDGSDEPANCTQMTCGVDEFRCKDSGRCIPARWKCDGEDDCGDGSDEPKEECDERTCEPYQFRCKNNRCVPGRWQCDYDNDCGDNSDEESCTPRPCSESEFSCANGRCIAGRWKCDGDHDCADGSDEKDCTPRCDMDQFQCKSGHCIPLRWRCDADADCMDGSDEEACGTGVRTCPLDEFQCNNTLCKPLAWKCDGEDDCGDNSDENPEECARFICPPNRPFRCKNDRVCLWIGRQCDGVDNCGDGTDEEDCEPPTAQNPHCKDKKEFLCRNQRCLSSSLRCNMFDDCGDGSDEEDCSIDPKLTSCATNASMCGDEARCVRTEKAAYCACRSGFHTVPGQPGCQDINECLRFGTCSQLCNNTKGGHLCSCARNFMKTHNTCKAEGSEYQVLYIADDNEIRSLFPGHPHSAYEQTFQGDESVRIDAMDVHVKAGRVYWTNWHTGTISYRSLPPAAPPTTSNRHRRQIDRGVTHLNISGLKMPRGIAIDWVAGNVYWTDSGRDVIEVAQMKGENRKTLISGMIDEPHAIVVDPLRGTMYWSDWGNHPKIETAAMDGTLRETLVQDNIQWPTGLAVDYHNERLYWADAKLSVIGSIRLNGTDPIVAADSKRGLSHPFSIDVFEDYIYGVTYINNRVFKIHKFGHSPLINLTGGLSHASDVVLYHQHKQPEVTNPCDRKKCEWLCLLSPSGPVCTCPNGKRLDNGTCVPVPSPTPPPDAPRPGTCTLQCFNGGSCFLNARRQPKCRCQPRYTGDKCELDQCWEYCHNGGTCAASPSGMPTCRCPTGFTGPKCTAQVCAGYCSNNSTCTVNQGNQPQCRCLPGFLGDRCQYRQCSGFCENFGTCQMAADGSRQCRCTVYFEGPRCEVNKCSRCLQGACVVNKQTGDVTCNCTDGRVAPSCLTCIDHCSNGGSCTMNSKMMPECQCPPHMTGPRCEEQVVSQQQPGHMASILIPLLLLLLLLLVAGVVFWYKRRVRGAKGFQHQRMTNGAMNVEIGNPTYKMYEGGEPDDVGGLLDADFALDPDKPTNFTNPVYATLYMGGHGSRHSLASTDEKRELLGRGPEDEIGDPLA

B1: Recombinant his-human PSAP (natural protein)
chain: GPVLGLKECTRGSAVWCQNVKTASDCGAVKHCLQTVWNKPTVKSLPCDICKDVVTAAGDMLKDNATEEEILVYLEKTCDWLPKPNMSASCKEIVDSYLPVILDIIKGEMSRPGEVCSALNLCESLQKHLAELNHQKQLESNKIPELDMTEVVAPFMANIPLLLYPQDGPRSKPQPKDNGDVCQDCIQMVTDIQTAVRTNSTFVQALVEHVKEECDRLGPGMADICKNYISQYSEIAIQMMMHMQPKEICALVGFCDEVKEMPMQTLVPAKVASKNVIPALELVEPIKKHEVPAKSDVYCEVCEFLVKEVTKLIDNNKTEKEILDAFDKMCSKLPKSLSEECQEVVDTYGSSILSILLEEVSPELVCSMLHLCSGTRLPALTVHVTQPKDGGFCEVCKKLVGYLDRNLEKNSTKQEILAALEKGCSFLPDPYQKQCDQFVAEYEPVLIEILVEVMDPSFVCLKIGACPSAHKPLLGTEKCIWGPSYWCQNTETAAQCNAVEHCKRHVWN
  uptake of hPSAP (1 μg/ml) by primary cortical neurons in the presence of GST-RAP (50 μg/ml), immunoblot: 75%
